Measurements: patent US20190231821A1 (US Dept. of Health and Human Services, published 2019)

Target: HERV-E peptide … (SEQ ID NO: 1) presented by HLA-A11 on cells (human)
Test: cell-based or functional assay

B1: HLA-A11 restricted HERV-E reactive T cell receptor (TCR α chain SEQ ID NO: 4, TCR β chain SEQ ID NO: 5) (TCR, V domains shown)
V domain 1: GIQVEQSPPDLILQEGANSTLRCNFSDSVNNLQWFHQNPWGQLINLFYIPSGTKQNGRLSATTVATERYSLLYISSSQTTDSGVYFCAVRGGADGLTFGKGTHLIIQP
V domain 2: DTEVTQTPKHLVMGMTNKKSLKCEQHMGHRAMYWYKQKAKKPPELMFVYSYEKLSINESVPSRFSPECPNSSLLNLHLHALQPEDSALYLCASSPPNEKLFFGSGTQLSVLE
Question: For B1, which “interferon-γ secretion by ELISA (FIG. 8)” value is on record?
Answer: > 2 fold over background
